The Human Domainome abundance scans (Beltran et al. 2025)
± gives the uncertainty stated by the source.

B1: Gamma-crystallin C, residues 4 to 79; numbered along this chain, P07315 (parent)
chain: ITFYEDRAFQGRSYETTTDCPNLQPYFSRCNSIRVESGCWMLYERPNYQGQQYLLRRGEYPDYQQWMGLSDSIRSC

Variants of: B1
Test: abundance fitness (aPCA) (normalised: wild type 0, dead -1); higher = more abundant; growth selection in yeast, the domain comes from the species named
Settings: Homo sapiens

Variant	abundance fitness
ITFYEDRAFQGRSYETTTDCPNLQPYFSRCNSIRVESGCWMLYEPPNYQGQQYLLRRGEYPDYQQWMGLSDSIRSC [R45P]	-0.955 ± 0.23
ITFYEDRAFQGRSYETTTDCPNLQPYFSRCNSIRVESGCWMLYEKPNYQGQQYLLRRGEYPDYQQWMGLSDSIRSC [R45K]	0.089 ± 0.12
ITFYEDRAFQGRSYETTTDCPNLQPYFSRCNSIRVESGCWMLYESPNYQGQQYLLRRGEYPDYQQWMGLSDSIRSC [R45S]	-0.127 ± 0.15
ITFYEDRAFQGRSYETTTDCPNLQPYFSRCNSIRVESGCWMLYEWPNYQGQQYLLRRGEYPDYQQWMGLSDSIRSC [R45W]	-0.04 ± 0.1
ITFYEDRAFQGRSYETTTDCPNLQPYFSRCNSIRVESGCWMLYETPNYQGQQYLLRRGEYPDYQQWMGLSDSIRSC [R45T]	-0.001 ± 0.12
ITFYEDRAFQGRSYETTTDCPNLQPYFSRCNSIRVESGCWMLYEAPNYQGQQYLLRRGEYPDYQQWMGLSDSIRSC [R45A]	-0.025 ± 0.084
ITFYEDRAFQGRSYETTTDCPNLQPYFSRCNSIRVESGCWMLYEGPNYQGQQYLLRRGEYPDYQQWMGLSDSIRSC [R45G]	0.061 ± 0.067
ITFYEDRAFQGRSYETTTDCPNLQPYFSRCNSIRVESGCWMLYELPNYQGQQYLLRRGEYPDYQQWMGLSDSIRSC [R45L]	-0.146 ± 0.13
ITFYEDRAFQGRSYETTTDCPNLQPYFSRCNSIRVESGCWMLYEVPNYQGQQYLLRRGEYPDYQQWMGLSDSIRSC [R45V]	-0.15 ± 0.085
ITFYEDRAFQGRSYETTTDCPNLQPYFSRCNSIRVESGCWMLYENPNYQGQQYLLRRGEYPDYQQWMGLSDSIRSC [R45N]	-0.169 ± 0.19
ITFYEDRAFQGRSYETTTDCPNLQPYFSRCNSIRVESGCWMLYEIPNYQGQQYLLRRGEYPDYQQWMGLSDSIRSC [R45I]	-0.16 ± 0.27
ITFYEDRAFQGRSYETTTDCPNLQPYFSRCNSIRVESGCWMLYEFPNYQGQQYLLRRGEYPDYQQWMGLSDSIRSC [R45F]	0.032 ± 0.13
ITFYEDRAFQGRSYETTTDCPNLQPYFSRCNSIRVESGCWMLYEYPNYQGQQYLLRRGEYPDYQQWMGLSDSIRSC [R45Y]	0.187 ± 0.27
ITFYEDRAFQGRSYETTTDCPNLQPYFSRCNSIRVESGCWMLYEMPNYQGQQYLLRRGEYPDYQQWMGLSDSIRSC [R45M]	-0.001 ± 0.1
ITFYEDRAFQGRSYETTTDCPNLQPYFSRCNSIRVESGCWMLYEQPNYQGQQYLLRRGEYPDYQQWMGLSDSIRSC [R45Q]	-0.13 ± 0.33
ITFYEDRAFQGRSYETTTDCPNLQPYFSRCNSIRVESGCWMLYEHPNYQGQQYLLRRGEYPDYQQWMGLSDSIRSC [R45H]	-0.057 ± 0.22
ITFYEDRAFQGRSYETTTDCPNLQPYFSRCNSIRVESGCWMLYEDPNYQGQQYLLRRGEYPDYQQWMGLSDSIRSC [R45D]	-0.11 ± 0.14
ITFYEDRAFQGRSYETTTDCPNLQPYFSRCNSIRVESGCWMLYECPNYQGQQYLLRRGEYPDYQQWMGLSDSIRSC [R45C]	-0.142 ± 0.19
ITFYEDRAFQGRSYETTTDCPNLQPYFSRCNSIRVESGCWMLYERPHYQGQQYLLRRGEYPDYQQWMGLSDSIRSC [N47H]	-0.125 ± 0.15
ITFYEDRAFQGRSYETTTDCPNLQPYFSRCNSIRVESGCWMLYERPEYQGQQYLLRRGEYPDYQQWMGLSDSIRSC [N47E]	0.047 ± 0.12
ITFYEDRAFQGRSYETTTDCPNLQPYFSRCNSIRVESGCWMLYERPFYQGQQYLLRRGEYPDYQQWMGLSDSIRSC [N47F]	-0.101 ± 0.33
ITFYEDRAFQGRSYETTTDCPNLQPYFSRCNSIRVESGCWMLYERPGYQGQQYLLRRGEYPDYQQWMGLSDSIRSC [N47G]	0.08 ± 0.066
ITFYEDRAFQGRSYETTTDCPNLQPYFSRCNSIRVESGCWMLYERPDYQGQQYLLRRGEYPDYQQWMGLSDSIRSC [N47D]	-0.032 ± 0.26
ITFYEDRAFQGRSYETTTDCPNLQPYFSRCNSIRVESGCWMLYERPCYQGQQYLLRRGEYPDYQQWMGLSDSIRSC [N47C]	-0.159 ± 0.15

Variant	abundance fitness
ITFYEDRAFQGRSYETTTDCPNLQPYFSRCNSIRVESGCWMLYERPIYQGQQYLLRRGEYPDYQQWMGLSDSIRSC [N47I]	-0.308 ± 0.28
ITFYEDRAFQGRSYETTTDCPNLQPYFSRCNSIRVESGCWMLYERPAYQGQQYLLRRGEYPDYQQWMGLSDSIRSC [N47A]	0.047 ± 0.084
ITFYEDRAFQGRSYETTTDCPNLQPYFSRCNSIRVESGCWMLYFRPNYQGQQYLLRRGEYPDYQQWMGLSDSIRSC [E44F]	-0.414 ± 0.31
ITFYEDRAFQGRSYETTTDCPNLQPYFSRCNSIRVESGCWMLYARPNYQGQQYLLRRGEYPDYQQWMGLSDSIRSC [E44A]	-0.034 ± 0.085
ITFYEDRAFQGRSYETTTDCPNLQPYFSRCNSIRVESGCWMLYLRPNYQGQQYLLRRGEYPDYQQWMGLSDSIRSC [E44L]	-0.006 ± 0.19
ITFYEDRAFQGRSYETTTDCPNLQPYFSRCNSIRVESGCWMLYGRPNYQGQQYLLRRGEYPDYQQWMGLSDSIRSC [E44G]	0.02 ± 0.057
ITFYEDRAFQGRSYETTTDCPNLQPYFSRCNSIRVESGCWMLYIRPNYQGQQYLLRRGEYPDYQQWMGLSDSIRSC [E44I]	-0.02 ± 0.26
ITFYEDRAFQGRSYETTTDCPNLQPYFSRCNSIRVESGCWMLYHRPNYQGQQYLLRRGEYPDYQQWMGLSDSIRSC [E44H]	-0.137 ± 0.16
ITFYEDRAFQGRSYETTTDCPNLQPYFSRCNSIRVESGCWMLYPRPNYQGQQYLLRRGEYPDYQQWMGLSDSIRSC [E44P]	-0.283 ± 0.15
ITFYEDRAFQGRSYETTTDCPNLQPYFSRCNSIRVESGCWMLYCRPNYQGQQYLLRRGEYPDYQQWMGLSDSIRSC [E44C]	0.068 ± 0.19
ITFYEDRAFQGRSYETTTDCPNLQPYFSRCNSIRVESGCWMLYQRPNYQGQQYLLRRGEYPDYQQWMGLSDSIRSC [E44Q]	0.049 ± 0.13
ITFYEDRAFQGRSYETTTDCPNLQPYFSRCNSIRVESGCWMLYTRPNYQGQQYLLRRGEYPDYQQWMGLSDSIRSC [E44T]	-0.206 ± 0.14
ITFYEDRAFQGRSYETTTDCPNLQPYFSRCNSIRVESGCWMLYSRPNYQGQQYLLRRGEYPDYQQWMGLSDSIRSC [E44S]	-0.077 ± 0.1
ITFYEDRAFQGRSYETTTDCPNLQPYFSRCNSIRVESGCWMLYRRPNYQGQQYLLRRGEYPDYQQWMGLSDSIRSC [E44R]	0.002 ± 0.066
ITFYEDRAFQGRSYETTTDCPNLQPYFSRCNSIRVESGCWMLYMRPNYQGQQYLLRRGEYPDYQQWMGLSDSIRSC [E44M]	0.355 ± 0.29
ITFYEDRAFQGRSYETTTDCPNLQPYFSRCNSIRVESGCWMLYDRPNYQGQQYLLRRGEYPDYQQWMGLSDSIRSC [E44D]	0.022 ± 0.14
ITFYEDRAFQGRSYETTTDCPNLQPYFSRCNSIRVESGCWMLYWRPNYQGQQYLLRRGEYPDYQQWMGLSDSIRSC [E44W]	-0.372 ± 0.12
ITFYEDRAFQGRSYETTTDCPNLQPYFSRCNSIRVESGCWMLYVRPNYQGQQYLLRRGEYPDYQQWMGLSDSIRSC [E44V]	-0.147 ± 0.11
ITFYEDRAFQGRSYETTTDCPNLQPYFSRCNSIRVESGCWMLFERPNYQGQQYLLRRGEYPDYQQWMGLSDSIRSC [Y43F]	-0.15 ± 0.15
ITFYEDRAFQGRSYETTTDCPNLQPYFSRCNSIRVESGCWMLWERPNYQGQQYLLRRGEYPDYQQWMGLSDSIRSC [Y43W]	-0.139 ± 0.12
ITFYEDRAFQGRSYETTTDCPNLQPYFSRCNSIRVESGCWMLGERPNYQGQQYLLRRGEYPDYQQWMGLSDSIRSC [Y43G]	-0.775 ± 0.083
ITFYEDRAFQGRSYETTTDCPNLQPYFSRCNSIRVESGCWMLCERPNYQGQQYLLRRGEYPDYQQWMGLSDSIRSC [Y43C]	0.111 ± 0.12
ITFYEDRAFQGRSYETTTDCPNLQPYFSRCNSIRVESGCWMLSERPNYQGQQYLLRRGEYPDYQQWMGLSDSIRSC [Y43S]	0.094 ± 0.083
ITFYEDRAFQGRSYETTTDCPNLQPYFSRCNSIRVESGCWMLRERPNYQGQQYLLRRGEYPDYQQWMGLSDSIRSC [Y43R]	-0.926 ± 0.14

Variant	abundance fitness
ITFYEDRAFQGRSYETTTDCPNLQPYFSRCNSIRVESGCWMLMERPNYQGQQYLLRRGEYPDYQQWMGLSDSIRSC [Y43M]	-0.296 ± 0.18
ITFYEDRAFQGRSYETTTDCPNLQPYFSRCNSIRVESGCWMLTERPNYQGQQYLLRRGEYPDYQQWMGLSDSIRSC [Y43T]	-0.249 ± 0.21
ITFYEDRAFQGRSYETTTDCPNLQPYFSRCNSIRVESGCWMLDERPNYQGQQYLLRRGEYPDYQQWMGLSDSIRSC [Y43D]	-0.817 ± 0.29
ITFYEDRAFQGRSYETTTDCPNLQPYFSRCNSIRVESGCWMLPERPNYQGQQYLLRRGEYPDYQQWMGLSDSIRSC [Y43P]	-1.03 ± 0.45
ITFYEDRAFQGRSYETTTDCPNLQPYFSRCNSIRVESGCWMLHERPNYQGQQYLLRRGEYPDYQQWMGLSDSIRSC [Y43H]	0.055 ± 0.11
ITFYEDRAFQGRSYETTTDCPNLQPYFSRCNSIRVESGCWMLQERPNYQGQQYLLRRGEYPDYQQWMGLSDSIRSC [Y43Q]	-0.86 ± 0.24
ITFYEDRAFQGRSYETTTDCPNLQPYFSRCNSIRVESGCWMLVERPNYQGQQYLLRRGEYPDYQQWMGLSDSIRSC [Y43V]	-1.05 ± 0.19
ITFYEDRAFQGRSYETTTDCPNLQPYFSRCNSIRVESGCWMLAERPNYQGQQYLLRRGEYPDYQQWMGLSDSIRSC [Y43A]	-0.156 ± 0.079
ITFYEDRAFQGRSYETTTDCPNLQPYFSRCNSIRVESGCWMLLERPNYQGQQYLLRRGEYPDYQQWMGLSDSIRSC [Y43L]	-0.889 ± 0.13
ITFYEDRAFQGRSYETTTDCPNLQPYFSRCNSIRVESGCWMTYERPNYQGQQYLLRRGEYPDYQQWMGLSDSIRSC [L42T]	-0.095 ± 0.16
ITFYEDRAFQGRSYETTTDCPNLQPYFSRCNSIRVESGCWMCYERPNYQGQQYLLRRGEYPDYQQWMGLSDSIRSC [L42C]	-0.031 ± 0.18
ITFYEDRAFQGRSYETTTDCPNLQPYFSRCNSIRVESGCWMEYERPNYQGQQYLLRRGEYPDYQQWMGLSDSIRSC [L42E]	-1.16 ± 0.37
ITFYEDRAFQGRSYETTTDCPNLQPYFSRCNSIRVESGCWMAYERPNYQGQQYLLRRGEYPDYQQWMGLSDSIRSC [L42A]	-0.102 ± 0.12
ITFYEDRAFQGRSYETTTDCPNLQPYFSRCNSIRVESGCWMSYERPNYQGQQYLLRRGEYPDYQQWMGLSDSIRSC [L42S]	-0.287 ± 0.098
ITFYEDRAFQGRSYETTTDCPNLQPYFSRCNSIRVESGCWMRYERPNYQGQQYLLRRGEYPDYQQWMGLSDSIRSC [L42R]	-1.16 ± 0.33
ITFYEDRAFQGRSYETTTDCPNLQPYFSRCNSIRVESGCWMYYERPNYQGQQYLLRRGEYPDYQQWMGLSDSIRSC [L42Y]	-0.728 ± 0.47
ITFYEDRAFQGRSYETTTDCPNLQPYFSRCNSIRVESGCWMQYERPNYQGQQYLLRRGEYPDYQQWMGLSDSIRSC [L42Q]	-0.888 ± 0.19
ITFYEDRAFQGRSYETTTDCPNLQPYFSRCNSIRVESGCWMMYERPNYQGQQYLLRRGEYPDYQQWMGLSDSIRSC [L42M]	0.045 ± 0.25
ITFYEDRAFQGRSYETTTDCPNLQPYFSRCNSIRVESGCWMVYERPNYQGQQYLLRRGEYPDYQQWMGLSDSIRSC [L42V]	-0.011 ± 0.083
ITFYEDRAFQGRSYETTTDCPNLQPYFSRCNSIRVESGCWMPYERPNYQGQQYLLRRGEYPDYQQWMGLSDSIRSC [L42P]	-0.864 ± 0.27
ITFYEDRAFQGRSYETTTDCPNLQPYFSRCNSIRVESGCWMWYERPNYQGQQYLLRRGEYPDYQQWMGLSDSIRSC [L42W]	-0.919 ± 0.27
ITFYEDRAFQGRSYETTTDCPNLQPYFSRCNSIRVESGCWMGYERPNYQGQQYLLRRGEYPDYQQWMGLSDSIRSC [L42G]	-0.063 ± 0.065
ITFYEDRAFQGRSYETTTDCPNLQPYFSRCNSIRVESGCWMDYERPNYQGQQYLLRRGEYPDYQQWMGLSDSIRSC [L42D]	-0.857 ± 0.48
ITFYEDRAFQGRSYETTTDCPNLQPYFSRCNSIRVESGCWMNYERPNYQGQQYLLRRGEYPDYQQWMGLSDSIRSC [L42N]	-0.967 ± 0.46
